# Reference: the supplement of paper PMC7125110
# ± gives the standard error. This sample holds only a part of the variants without activity.
# B1: glmS ribozyme (parent)
# chain: AUAAAAGCGCCAGAACUACAGAAAUGUAGUUGACGAGGAGGAGGUUUAUCGAAUUUUCGGCGGAUGCCUCCAAA
# Variants of: B1
# Assay: self-cleavage kobs at 10000 uM GlcN6P; higher = faster cleavage; RNA array
# Details: with glucosamine-6-phosphate
# Outline: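 kcat and KM were obtained from weighted Michaelis–Menten fits across concentrations of kobs values. Those came from one- or two-exponential decay fits to per-tile medians normalised to baseline and to non-cleaving reference variants. The variants were barcoded ribozymes transcribed in situ by E. coli RNA polymerase on sequenced MiSeq chips and tracked through a hybridised Cy3 probe at 37 °C, with 40 μM to 10 mM glucosamine-6-phosphate in HEPES/KCl/Mg(OAc)2 buffer flowed in.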
row,Variant,self-cleavage kobs at 10000 uM GlcN6P [s⁻¹]
1,G38U C50G C71A,9.8e-05 ± 1.9e-05
2,A33C C50A C67G C68G,7.88e-05 ± 2.1e-05
3,G35C A42U C71U,< 1e-05
4,G40A U65G C71U,0.0033 ± 0.00061
5,U54A G66A C68A,9.65e-05 ± 1.7e-05
6,A33G C50U C58G C71U,< 1e-05
7,G38A U49A G66U,< 1e-05
8,A48U A52G U55A A64G,4.66e-05 ± 1.1e-05
9,A33U U45A U46G,0.000433 ± 5.7e-05
10,G32C A36C G51C,< 1e-05
11,U31C G41A G66A,0.00018 ± 2.8e-05
12,G37A U45A C61U C67U,< 1e-05
13,U46A C50A G59U,< 1e-05
14,G44A C58A C67U,0.000308 ± 6.5e-05
15,G35C G43C,< 1e-05
16,G43C U45G A48U C50U C58U C67U,< 1e-05
17,A36U G59U G60C,< 1e-05
18,U54G G59U C71U,4.41e-05 ± 1.6e-05
19,A36C G38U A39C G62U,< 1e-05
20,A42U C58U G59U U65A C70G,< 1e-05
21,A39G A53C C71A,0.00202 ± 0.00063
22,G37U G44U G60U,< 1e-05
23,A33C G38A C58A,< 1e-05
24,A39U A52G C67G,0.00016 ± 3.6e-05
25,A33U G41C A52U A53C,< 1e-05

row,Variant,self-cleavage kobs at 10000 uM GlcN6P [s⁻¹]
1,U49G G60A C61G G62U,< 1e-05
2,U31A A36G U49G C50U C58A,< 1e-05
3,A39U G66U C67A,0.00316 ± 0.00061
4,G38A A42G U49A,< 1e-05
5,G32A A52G C70U,0.000145 ± 1.9e-05
6,G38A G51A,< 1e-05
7,G43A G51U G63C,< 1e-05
8,A39U G63U U65A,< 1e-05
9,A52U U55G A64U,< 1e-05
10,U30G G35U G43C,< 1e-05
11,A42G U49A C50G,< 1e-05
12,A42G U55C G60A,4.43e-05 ± 1.7e-05
13,G44C C70U C71A,< 1e-05
14,A52U U65A,2.95e-05 ± 9.7e-06
15,U46G C61G C71G,4.27e-05 ± 1.8e-05
16,G32C A48C U55C G59A G63A,< 1e-05
17,G43C G62C A64G C68G,< 1e-05
18,U31A G32A A42G,0.000766 ± 0.00025
19,U46A A48G,3.66e-05 ± 1.3e-05
20,A39U C67A C70U,0.00654 ± 0.0014
21,U31G G38U A53U,< 1e-05
22,G40A C58A,7.56e-05 ± 1.6e-05
23,A33C A52G U54A,< 1e-05
24,U31G A36U C67A C68G,6.42e-05 ± 1.5e-05
25,G32A G40A C68G,< 1e-05

row,Variant,self-cleavage kobs at 10000 uM GlcN6P [s⁻¹]
1,G32C U56A C71A,3.09e-05 ± 1.5e-05
2,U45G G59A,7.24e-05 ± 1.4e-05
3,U45G G59U,4.05e-05 ± 1.2e-05
4,C58G G62U,< 1e-05
5,A39G G60C C70U,< 1e-05
6,U31A A33G C67A,< 1e-05
7,U30G U47C U54C C67U,5.7e-05 ± 2.2e-05
8,G35C G51U C58U C61G A64G U65A,< 1e-05
9,G44A U46A,0.000375 ± 6.2e-05
10,U54G G63C U65C C68G C71G,3.78e-05 ± 1.6e-05
11,U31G A53G U69C,0.00324 ± 0.00093
12,A33U U47A,9.99e-05 ± 1.7e-05
13,C58U C61U C71U,< 1e-05
14,C58U G59A,< 1e-05
15,U31C U57C,5.52e-05 ± 1.3e-05
16,C34A A42C U65A,< 1e-05
17,A48G C58U A64U,< 1e-05
18,G41U A42U U55C C70G,0.000238 ± 4.7e-05
19,C50A G59C C70U,< 1e-05
20,G59C G63C C70A,< 1e-05
21,A39U U55C A64G,0.0229 ± 0.0073
22,G35C C50G A53C,3.34e-05 ± 8.6e-06
23,U55A C58U U65C,< 1e-05
24,A33U A42C U49A C58G C61G,< 1e-05
25,A36C U54A G59A,< 1e-05

row,Variant,self-cleavage kobs at 10000 uM GlcN6P [s⁻¹]
1,G37A G44A,2.6e-05 ± 1.2e-05
2,A48C C58A C61U,< 1e-05
3,U30G G35A G40C C68G,< 1e-05
4,A36U A39C U65C,< 1e-05
5,U47G G59A,3.68e-05 ± 1.3e-05
6,G38A G59C U65C C70A,< 1e-05
7,U47G U54G G62U,< 1e-05
8,A36G G37C A42C A48C U65G,< 1e-05
9,A53G C58U C70U,0.000123 ± 2.7e-05
10,G43A A53U G59C G60U,< 1e-05
11,G59C A64U C71G,< 1e-05
12,G40C A64G C71U,0.00117 ± 0.00019
13,A42C G44U G66U,< 1e-05
14,G35A U49G C61U,< 1e-05
15,G32U U55A C58G,0.000755 ± 0.00011
16,A42C G44C G51U G66A,< 1e-05
17,C34U G38C G60C,< 1e-05
18,C34A G66U C67G,< 1e-05
19,U31A A39C U56G,0.00147 ± 0.0004
20,C50G G63U U65A U69G,0.000121 ± 2.7e-05
21,A42G C58G G66A,5.14e-05 ± 1.9e-05
22,U30G G37C U45A A52G,< 1e-05
23,G41U C67G C68A,0.000314 ± 0.00012
24,A39G U49G,0.000904 ± 0.00021
25,U46C U49A,< 1e-05

row,Variant,self-cleavage kobs at 10000 uM GlcN6P [s⁻¹]
1,G38C G44C A53U G62C,< 1e-05
2,U47C A53U C68G,3.22e-05 ± 1.4e-05
3,G37U C58G,< 1e-05
4,G38U A39C G44A,< 1e-05
5,G37C A42C U57A,< 1e-05
6,G38A A52U U56G,< 1e-05
7,A52C C68U C70U,3.87e-05 ± 1.7e-05
8,U57A G60A C61A,< 1e-05
9,U45C U65G C67U,0.000112 ± 2.2e-05
10,G32U A52G C70A,8.27e-05 ± 2.1e-05
11,A39C U49A C61U C70G,< 1e-05
12,U54G C61A,< 1e-05
13,U55G C61A C71G,< 1e-05
14,U30G A53U U69A,4.29e-05 ± 1.8e-05
15,U49C C50U U56C,< 1e-05
16,G38U C50G C67A C71G,0.000322 ± 6.1e-05
17,G32U A53G U65A,5.88e-05 ± 1.9e-05
18,U54C G66C,0.00113 ± 0.00015
19,G51C G60U C71A,< 1e-05
20,U31C G40U G66A,0.00025 ± 7.4e-05
21,U31A G32A G62U,< 1e-05
22,G32A U69G C71A,4.49e-05 ± 1.6e-05
23,A52U A53C G62C,< 1e-05
24,A33G A42G G59U C61A,< 1e-05
